Results as given in paper PMC5551413.

Tests used:
[1] = target: Streptococcus pyogenes NH3-dependent NAD+ synthetase (spNadE) (Streptococcus pyogenes); assay: crystal structure
[2] = target: Streptococcus pyogenes NH3-dependent NAD+ synthetase (spNadE) (Streptococcus pyogenes); assay: dynamic light scattering
[3] = target: Streptococcus pyogenes NH3-dependent NAD+ synthetase (spNadE) (Streptococcus pyogenes); assay: SEC
[4] = target: spNadC Δ69A deletion mutant (Streptococcus pyogenes); assay: crystal structure
[5] = target: Streptococcus pyogenes quinolinate phosphoribosyltransferase (spNadC) (Streptococcus pyogenes); assay: dynamic light scattering
[6] = target: Streptococcus pyogenes quinolinate phosphoribosyltransferase (spNadC) (Streptococcus pyogenes); assay: SEC

## Streptococcus pyogenes NH3-dependent NAD+ synthetase (spNadE) (enzyme)
[1]
  stoichiometry N: 2
[2]
  stoichiometry N: 2
[3]
  stoichiometry N: 2

## spNadC Δ69A deletion mutant (enzyme)
[4]
  stoichiometry N: 6

## Streptococcus pyogenes quinolinate phosphoribosyltransferase (spNadC) (enzyme)
[5]
  stoichiometry N: 6
[6]
  stoichiometry N: 6
